Data: publication doi:10.1101/2025.06.15.659787

Target: [2Fe-2S]-bound Mtb-SufU (sulfide transfer protein SufU, Rv1465, of Mycobacterium tuberculosis H37Rv) (Mycobacterium tuberculosis H37Rv) (UniProt O53156)
Experiment: SEC-MALS

## [2Fe-2S]-bound Mtb-SufU (sulfide transfer protein SufU, Rv1465, of Mycobacterium tuberculosis H37Rv) (from UniProt O53156 1-162) (natural protein)
  stoichiometry N: 4
